Results published in the supplement of paper PMC10126150.
± gives the standard deviation of the averaged measurements.

Tested on: ATP
Assay: switch fluorescence ratio, 500 uM ATP over buffer (Cy3 cluster intensity, sum of 5 cycles each) (fold (ratio)); higher = stronger signal-on switching upon ATP binding; sequences stand for … in TCGTCGGCAGCGTCAGATGTGTATAAGAGACAGTTTTTTTTTTTTTTTTTTTTTTTTT…TC
Details: aptamer strand: ATP DNA aptamer (quencher-CACCTGGGGGAGTATTGCGGAGGAAGG + anchor), 100 nM annealed; ATP concentration: 500 uM
Outline: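 For every switch-domain sequence, the fluorescence ratio is the mean of per-cluster values, each being summed target-cycle Cy3 intensity over summed buffer-cycle Cy3 intensity. Clusters outside 100-1000 RFU were excluded. On a modified Illumina MiSeq flow-cell, the Cy3-labelled switching-strand clusters were annealed to 100 nM quencher-labelled ATP aptamer, imaged in selection buffer and then after 15 min with 500 uM ATP at 22 °C. Five such cycles were run, with NaOH stripping and re-annealing between them.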
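Note: ATP exposure 15 min at 22 °C before imaging.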

Sequence	switch fluorescence ratio
AGTTGAAGGA	0.986 ± 0.027
AGTTGAATT	1.03 ± 0.046
AGTTGACGGG	1.03 ± 0.0082
AGTTGACTTT	0.986 ± 0.011
AGTTGCATGC	0.9677 ± 0.0093
AGTTGGGACT	1.016 ± 0.0068
AGTTGGGATT	1.032 ± 0.01
AGTTGGGTAT	1.02 ± 0.012
AGTTGGGTTT	0.9964 ± 0.0071
AGTTGGTCGG	0.975 ± 0.031
AGTTGGTGAG	0.98 ± 0.034
AGTTGGTTTT	1.02 ± 0.033
AGTTGTAGGG	1 ± 0.016
AGTTGTATGG	0.9738 ± 0.0049
AGTTGTGTGC	0.952 ± 0.044
AGTTGTGTTA	1.007 ± 0.0057
AGTTGTTACA	1.01 ± 0.032
AGTTGTTGTT	0.981 ± 0.022
AGTTGTTTCG	1.016 ± 0.0023
AGTTTAACGC	0.9911 ± 0.0059
AGTTTAAGAT	1.005 ± 0.0071
AGTTTACGAT	1.037 ± 0.0099
AGTTTACTTT	1.03 ± 0.017

Sequence	switch fluorescence ratio
AGTTTATTTT	0.986 ± 0.034
AGTTTCAGGC	1.01 ± 0.031
AGTTTCGGAA	1.021 ± 0.0038
AGTTTGCTGG	0.996 ± 0.039
AGTTTGGCAG	0.998 ± 0.035
AGTTTGGCTT	0.99 ± 0.011
AGTTTGGGTT	1.01 ± 0.073
AGTTTGTGGG	0.984 ± 0.0025
AGTTTGTGTG	0.977 ± 0.014
AGTTTGTTCC	1.02 ± 0.047
AGTTTTAAGG	1 ± 0.025
AGTTTTACAA	1.03 ± 0.012
AGTTTTACAT	0.9608 ± 0.0018
AGTTTTAGCC	1 ± 0.027
AGTTTTAGGT	1.02 ± 0.036
AGTTTTAGTA	0.974 ± 0.03
AGTTTTATCA	0.97 ± 0.015
AGTTTTGTCG	1.01 ± 0.022
AGTTTTTTTA	0.981 ± 0.018
ATAAAAAAGC	1.02 ± 0.074
ATAAAAGGCG	1.021 ± 0.0061
ATAAAATCTA	1.02 ± 0.061
ATAAACTATA	1.04 ± 0.06

Sequence	switch fluorescence ratio
ATAAAGGGCC	0.99 ± 0.012
ATAAAGTTCC	1.13 ± 0.038
ATAAATCGAT	1.023 ± 0.0018
ATAAATGATA	1 ± 0.049
ATAAATGCCG	0.961 ± 0.12
ATAACACATG	1.01 ± 0.032
ATAACCATCA	0.996 ± 0.057
ATAAGAAGCG	1.02 ± 0.04
ATAAGCGATT	1.03 ± 0.024
ATAAGCGGGG	1.01 ± 0.04
ATAAGCTGGT	0.953 ± 0.021
ATAAGGAGTA	1 ± 0.016
ATAAGGCCTA	0.991 ± 0.038
ATAAGGCGAG	0.998 ± 0.025
ATAAGGGTAG	1.028 ± 0.0054
ATAAGGTCGC	0.927 ± 0.021
ATAAGGTTCC	1.091 ± 0.005
ATAAGTAACG	1 ± 0.015
ATAAGTACTC	1.28 ± 0.1
ATAAGTCCGG	1.03 ± 0.042
ATAAGTGCAT	1 ± 0.016
ATAAGTGTCA	0.9926 ± 0.0067
ATAAGTTCTT	0.995 ± 0.033

Sequence	switch fluorescence ratio
ATAAGTTGGT	0.987 ± 0.046
ATAAGTTGTT	0.993 ± 0.02
ATAAGTTTTA	0.989 ± 0.0099
ATAATACGGG	1.03 ± 0.017
ATAATAGGTT	0.986 ± 0.028
ATAATATACT	1.04 ± 0.055
ATAATATGGT	0.9838 ± 0.0036
ATAATATTGG	0.995 ± 0.013
ATAATCCTGG	0.987 ± 0.011
ATAATCGGGA	0.994 ± 0.034
ATAATCTCTA	0.9907 ± 0.0094
ATAATGAGTC	0.961 ± 0.013
ATAATGGGTA	0.97 ± 0.025
ATAATGTATC	1.03 ± 0.018
ATAATGTGCA	1.024 ± 0.0071
ATAATGTTAC	1.09 ± 0.029
ATAATTCATG	0.981 ± 0.029
ATAATTCGTA	0.96 ± 0.024
ATAATTGTTC	0.99 ± 0.031
ATAATTTGCG	0.9814 ± 0.0073
ATACAAATTA	1.01 ± 0.027
ATACCTGAGC	1.113 ± 0.0041
ATACCTTA	1.02 ± 0.038

Sequence	switch fluorescence ratio
ATACGAACGG	1.48 ± 0.015
ATACGAAGGA	1 ± 0.028
ATACGGGGTG	1.1 ± 0.035
ATACTATCTT	0.996 ± 0.019
ATACTATTGT	1.029 ± 0.0037
ATACTCGGTA	0.997 ± 0.023
ATACTGACAT	1.2 ± 0.053
ATACTTTGCT	1 ± 0.034
ATAGAACTAG	1 ± 0.011
ATAGAAGAG	0.978 ± 0.017
ATAGAATGGG	0.9928 ± 0.0072
ATAGACGTGT	1.02 ± 0.092
ATAGAGAAGC	1.03 ± 0.025
ATAGAGCCTA	1.03 ± 0.02
ATAGAGGAGT	0.998 ± 0.032
ATAGAGGTAG	0.976 ± 0.017
ATAGAGGTGG	0.9979 ± 0.0022
ATAGATAACG	1 ± 0.035
ATAGATAGGT	0.99 ± 0.034
ATAGATAGTG	0.959 ± 0.015
ATAGATCTGA	1.03 ± 0.084
ATAGATGGGG	1.01 ± 0.018
ATAGCAAAAT	1.07 ± 0.13

Sequence	switch fluorescence ratio
ATAGCAGATG	0.991 ± 0.046
ATAGCAGGGG	1.11 ± 0.082
ATAGCAGTCG	1.04 ± 0.077
ATAGCAGTTT	1.02 ± 0.013
ATAGCCTGGT	0.978 ± 0.018
ATAGCTTTGA	1.02 ± 0.0014
ATAGGAAATA	1.06 ± 0.035
ATAGGAACGC	0.995 ± 0.026
ATAGGAAGGG	0.996 ± 0.019
ATAGGACTGA	1.03 ± 0.023
ATAGGAGAGC	1.044 ± 0.0021
ATAGGAGCGT	0.979 ± 0.038
ATAGGAGGGA	1.01 ± 0.017
ATAGGAGGTC	1.01 ± 0.013
ATAGGATGCC	0.999 ± 0.019
ATAGGCGAAA	0.986 ± 0.022
ATAGGCGCGC	1.04 ± 0.014
ATAGGCGTTT	0.975 ± 0.018
ATAGGGACAG	1.012 ± 0.0078
ATAGGGAGTG	0.996 ± 0.043
ATAGGGCGGC	1.012 ± 0.0038
ATAGGGCTGG	0.968 ± 0.024
ATAGGGGAAG	1.01 ± 0.033

Sequence	switch fluorescence ratio
ATAGGGGGTC	0.988 ± 0.047
ATAGGGGGTG	1.03 ± 0.034
ATAGGGGTGT	1.01 ± 0.062
ATAGGGTACG	1.06 ± 0.022
ATAGGGTCGT	0.998 ± 0.011
ATAGGGTGAT	1.03 ± 0.021
ATAGGGTTGG	0.996 ± 0.049
ATAGGTAGCG	1.01 ± 0.023
ATAGGTCAGG	1.026 ± 0.0022
ATAGGTCTTC	0.983 ± 0.059
ATAGGTGCTT	1.131 ± 0.01
ATAGGTGTGG	1.02 ± 0.035
ATAGGTTACG	1.21 ± 0.25
ATAGGTTAGA	1.06 ± 0.14
ATAGGTTCGG	0.968 ± 0.021
ATAGGTTGGG	0.996 ± 0.03
ATAGTAACCG	0.997 ± 0.083
ATAGTACGTG	1.01 ± 0.024
ATAGTAGGCT	0.994 ± 0.011
